Literature values as cited in US20260109963A1, “COMPOSITIONS, SYSTEMS, AND METHODS FOR REDUCING ADIPOSE TISSUE” (Oisin Biotechnologies, Inc., priority 2023, published 2026).

System: Heart
Conditions: almost completely abrogated after IV delivery

B1: miR1d: miRNA/target site de-targeting heart & skeletal muscle (nucleic acid)
chain: GGCCGGCCAATACATACTTCTTTACATTCCACGATAATACATACTTCTTTACATTCCAACCGGTAATACATACTTCTTTACATTCCATCACAATACATACTTCTTTACATTCCAGGCCGGCC
modifications: listed as DNA, chemistry not fully specified; the letters are possibly those of the target site
notes: miRNA/target site de-targeting heart & skeletal muscle
For B1, the “transgene expression in heart (in words)” value is given as “Transgene expression in heart almost”.
